Where two headings read alike, the source gives them in different places. PLA = 3-phenyllactic acid (2-hydroxy-3-phenylpropanoic acid)
Legend:
[1] = target: glucagon receptor, P47871; assay: cell-based or functional assay
[2] = target: glucagon receptor, P47871; assay: receptor binding, method not described
[3] = target: glucagon receptor (UniProt P47871); assay: cell-based or functional assay
[4] = target: glucagon receptor (UniProt P47871); assay: cell-based or functional assay; remark: listed apart in the source
[5] = target: GLP-1 receptor (UniProt P43220); assay: cell-based or functional assay
[6] = target: GLP-1 receptor (UniProt P43220); assay: cell-based or functional assay; remark: listed apart in the source

Sequence of glucagon receptor (P47871 26-477 limits assumed): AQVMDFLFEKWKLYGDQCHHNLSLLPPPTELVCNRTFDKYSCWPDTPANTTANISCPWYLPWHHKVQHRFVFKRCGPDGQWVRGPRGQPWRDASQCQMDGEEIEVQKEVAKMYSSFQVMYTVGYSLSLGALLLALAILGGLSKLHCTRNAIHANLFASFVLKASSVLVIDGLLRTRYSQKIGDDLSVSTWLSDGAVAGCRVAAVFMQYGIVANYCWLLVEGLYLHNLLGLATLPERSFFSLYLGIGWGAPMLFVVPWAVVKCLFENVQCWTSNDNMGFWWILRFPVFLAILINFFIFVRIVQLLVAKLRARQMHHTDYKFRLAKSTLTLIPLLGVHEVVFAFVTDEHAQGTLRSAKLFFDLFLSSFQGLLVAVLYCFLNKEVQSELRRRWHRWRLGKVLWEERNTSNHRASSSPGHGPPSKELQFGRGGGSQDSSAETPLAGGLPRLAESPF
Sequence of GLP-1 receptor (P43220 24-463 limits assumed): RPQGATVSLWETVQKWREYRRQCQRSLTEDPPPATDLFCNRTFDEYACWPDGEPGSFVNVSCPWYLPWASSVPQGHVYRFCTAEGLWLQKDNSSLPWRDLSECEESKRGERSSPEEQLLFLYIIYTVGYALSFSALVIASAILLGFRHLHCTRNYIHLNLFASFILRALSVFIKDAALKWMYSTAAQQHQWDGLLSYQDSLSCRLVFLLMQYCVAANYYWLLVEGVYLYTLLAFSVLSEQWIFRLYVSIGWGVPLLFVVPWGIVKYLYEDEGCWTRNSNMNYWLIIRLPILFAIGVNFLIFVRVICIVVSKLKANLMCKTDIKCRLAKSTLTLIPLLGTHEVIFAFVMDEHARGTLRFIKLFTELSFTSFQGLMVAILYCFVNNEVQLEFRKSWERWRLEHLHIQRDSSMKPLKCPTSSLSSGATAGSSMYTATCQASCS
Sequence of glucagon receptor, P47871 (P47871 26-477 limits assumed): as the sequence (P47871 26-477 limits assumed) above

| Binder | IC50(nM) (cAMP, inhibit Glucagon) 0.1 nM or 0.2 nM [1] | IC50 [2] | Glucagon IC50 [3] | Glu IC50 [4] | GLP-1 (EC50) [5] | GLP-1 (EC50) [6] |
| --- | --- | --- | --- | --- | --- | --- |
| {PLA}-TSEYSKYLDSRRAQDFVQWLMNTGPSSGAPPPS-NH2 [[PLA6, E9]Glucagon (aa6-29 + CEX)-NH2] | 24.8 nM | 40.3 nM | – | – | – | – |
| TSEYSKYLDERRAQDFVQWLMNTGPSSGAPPPS (PLA at position 6, N-terminal to the letters given; lactam between K12 and E16 (glucagon numbering)) [[PLA6, E9, K12E16 (Lactam)] glucagon (6-CEX) analog] | – | – | 72 nM | 72 nM | 6 nM | – |
| FTSEYSKYLDERRAQDFVQWLMNTGPSSGAPPPS [Glucagon (6-CEX) analog E9, K12, E16] | – | – | 762 nM | 762 nM | – | – |
| FTSDYSKYLDERRAQDFVQWLMNTGPSSGAPPPS (lactam between K12 and E16 (glucagon numbering)) [Glucagon (6-CEX) analog D9, K12E16 (Lactam)] | – | – | 828 nM | 828 nM | 119 nM | 18 nM |
| FTSEYSKYLDERRAKDFVQWLMNTGPSSGAPPPS (lactam between E16 and K20 (glucagon numbering)) [Glucagon (6-CEX) analog E9, E16K20 (lactam)] | – | – | 42 nM | 42 nM | 36 nM | – |
| FTSEYSKYLDERRAQDFVQWLMNTGPSSGAPPPS (lactam between K12 and E16 (glucagon numbering)) [Glucagon (6-CEX) analog E9, K12E16 (lactam)] | – | – | 2010 nM | 2010 nM | 63 nM | – |

Source: US20120322725A1
